Reference: PMC10405735

Experiments:
[1] = biological target: human GPR182 (hGPR182), expressed from hGPR182 T2A GFP in 300.19 pre-B cells (human) (UniProt O15218); assay: flow cytometry on cells; competition scavenging at 37°C: 300.19 cells expressing mGPR182 or hGPR182 with 3 nM fluorescent chemokine and increasing concentrations of its unlabeled counterpart, 45 min
[2] = biological target: murine GPR182 (mGPR182), expressed from mGPR182 T2A GFP in 300.19 pre-B cells (mouse) (UniProt P43142); assay: as above
CCL20 (Mus musculus) = CCL20 (Mus musculus) (UniProt O89093); details: cited from earlier work

| Kd (competition scavenging) [1] [µM] | Kd (competition scavenging) [2] [µM] | Substance | Kd (CCL20 (Mus musculus)) [µM] |
| --- | --- | --- | --- |
| 0.085 | 0.06 | hCXCL12, unlabeled (from UniProt P48061 22-93) (ligand) |  |
|  |  | ACKR4 (from UniProt Q924I3) | 0.8 |
